# From the MegaScale stability set (Tsuboyama et al. 2023)
# B1: 2K2A (parent)
# chain: ELREAFRLYDKEGNGYISTDVMREILAELDETLSSEDLDAMIDEIDADGSGTVDFEEFMGVMT
# Variants of: B1
# Assay: folding stability dG (cDNA display proteolysis); higher = more stable
# Settings: PBS, room temperature
row,Variant,folding stability dG
1,ELREAFRLYDKEGNGYISTDVMREILAELDETLSSEDLDAMVDEIDADGSGTVDFEEFMGVMT [I42V],1.34 kcal/mol
2,ELREAFRLYDKEGNGYISTDVMREILAELDETLSSEDLDAMRDEIDADGSGTVDFEEFMGVMT [I42R],-0.918 kcal/mol
3,ELREAFRLYDKEGNGYISTDVMREILAELDETLSSEDLDAMWDEIDADGSGTVDFEEFMGVMT [I42W],0.22 kcal/mol
4,ELREAFRLYDKEGNGYISTDVMREILAELDETLSSEDLDAMGDEIDADGSGTVDFEEFMGVMT [I42G],-0.688 kcal/mol
5,ELREAFRLYDKEGNGYISTDVMREILAELDETLSSEDLDAMKDEIDADGSGTVDFEEFMGVMT [I42K],-0.287 kcal/mol
6,ELREAFRLYDKEGNGYISTDVMREILAELDETLSSEDLDAMEDEIDADGSGTVDFEEFMGVMT [I42E],-0.498 kcal/mol
7,ELREAFRLYDKEGNGYISTDVMREILAELDETLSSEDLDAMDDEIDADGSGTVDFEEFMGVMT [I42D],-0.854 kcal/mol
8,ELREAFRLYDKEGNGYISTDVMREILAELDETLSSEDLDAMPDEIDADGSGTVDFEEFMGVMT [I42P],-0.739 kcal/mol
9,ELREAFRLYDKEGNGYISTDVMREILAELDETLSSEDLDAMLDEIDADGSGTVDFEEFMGVMT [I42L],1.73 kcal/mol
10,ELREAFRLYDKEGNGYISTDVMREILAELDETLSSEDLDAMNDEIDADGSGTVDFEEFMGVMT [I42N],-0.359 kcal/mol
11,ELREAFRLYDKEGNGYISTDVMREILAELDETLSSEDLDAMYDEIDADGSGTVDFEEFMGVMT [I42Y],-0.094 kcal/mol
12,ELREAFRLYDKEGNGYISTDVMREILAELDETLSSEDLDAMHDEIDADGSGTVDFEEFMGVMT [I42H],-0.459 kcal/mol
13,ELREAFRLYDKEGNGYISTDVMREILAELDETLSSEDLDAMMDEIDADGSGTVDFEEFMGVMT [I42M],1.72 kcal/mol
14,ELREAFRLYDKEGNGYISTDVMREILAELDETLSSEDLDAMCDEIDADGSGTVDFEEFMGVMT [I42C],0.098 kcal/mol
15,ELREAFRLYDKEGNGYISTDVMREILAELDETLSSEDLDAMADEIDADGSGTVDFEEFMGVMT [I42A],-0.231 kcal/mol
16,ELREAFRLYDKEGNGYISTDVMREILAELDETLSSEDLDAMQDEIDADGSGTVDFEEFMGVMT [I42Q],-0.244 kcal/mol
17,ELREAFRLYDKEGNGYISTDVMREILAELDETLSSEDLDAMSDEIDADGSGTVDFEEFMGVMT [I42S],-0.099 kcal/mol
18,ELREAFRLYDKEGNGYISTDVMREILAELDETLSSEDLDAMFDEIDADGSGTVDFEEFMGVMT [I42F],1.08 kcal/mol
19,ELREAFRLYDKEGNGYISTDVMREILAELDETLSSEDLDAMTDEIDADGSGTVDFEEFMGVMT [I42T],0.392 kcal/mol
20,ELREAFRLYDKEGNGYISTDVMREILAELDETLSSEDLDAVIDEIDADGSGTVDFEEFMGVMT [M41V],1.21 kcal/mol
21,ELREAFRLYDKEGNGYISTDVMREILAELDETLSSEDLDAPIDEIDADGSGTVDFEEFMGVMT [M41P],-0.862 kcal/mol
22,ELREAFRLYDKEGNGYISTDVMREILAELDETLSSEDLDAAIDEIDADGSGTVDFEEFMGVMT [M41A],1.27 kcal/mol

row,Variant,folding stability dG
1,ELREAFRLYDKEGNGYISTDVMREILAELDETLSSEDLDAKIDEIDADGSGTVDFEEFMGVMT [M41K],1.49 kcal/mol
2,ELREAFRLYDKEGNGYISTDVMREILAELDETLSSEDLDAEIDEIDADGSGTVDFEEFMGVMT [M41E],-0.173 kcal/mol
3,ELREAFRLYDKEGNGYISTDVMREILAELDETLSSEDLDATIDEIDADGSGTVDFEEFMGVMT [M41T],0.556 kcal/mol
4,ELREAFRLYDKEGNGYISTDVMREILAELDETLSSEDLDAFIDEIDADGSGTVDFEEFMGVMT [M41F],1.5 kcal/mol
5,ELREAFRLYDKEGNGYISTDVMREILAELDETLSSEDLDAYIDEIDADGSGTVDFEEFMGVMT [M41Y],1.61 kcal/mol
6,ELREAFRLYDKEGNGYISTDVMREILAELDETLSSEDLDAWIDEIDADGSGTVDFEEFMGVMT [M41W],2.43 kcal/mol
7,ELREAFRLYDKEGNGYISTDVMREILAELDETLSSEDLDAIIDEIDADGSGTVDFEEFMGVMT [M41I],1.86 kcal/mol
8,ELREAFRLYDKEGNGYISTDVMREILAELDETLSSEDLDANIDEIDADGSGTVDFEEFMGVMT [M41N],-0.4 kcal/mol
9,ELREAFRLYDKEGNGYISTDVMREILAELDETLSSEDLDACIDEIDADGSGTVDFEEFMGVMT [M41C],1.37 kcal/mol
10,ELREAFRLYDKEGNGYISTDVMREILAELDETLSSEDLDARIDEIDADGSGTVDFEEFMGVMT [M41R],1.47 kcal/mol
11,ELREAFRLYDKEGNGYISTDVMREILAELDETLSSEDLDAHIDEIDADGSGTVDFEEFMGVMT [M41H],0.645 kcal/mol
12,ELREAFRLYDKEGNGYISTDVMREILAELDETLSSEDLDADIDEIDADGSGTVDFEEFMGVMT [M41D],-0.547 kcal/mol
13,ELREAFRLYDKEGNGYISTDVMREILAELDETLSSEDLDAQIDEIDADGSGTVDFEEFMGVMT [M41Q],0.887 kcal/mol
14,ELREAFRLYDKEGNGYISTDVMREILAELDETLSSEDLDASIDEIDADGSGTVDFEEFMGVMT [M41S],0.166 kcal/mol
15,ELREAFRLYDKEGNGYISTDVMREILAELDETLSSEDLDAGIDEIDADGSGTVDFEEFMGVMT [M41G],0.01 kcal/mol
16,ELREAFRLYDKEGNGYISTDVMREILAELDETLSSEDLDALIDEIDADGSGTVDFEEFMGVMT [M41L],2.03 kcal/mol
17,ELREAFRLYDKEGNGYISTDVMREILAELDETLSSEDLTAMIDEIDADGSGTVDFEEFMGVMT [D39T],1.3 kcal/mol
18,ELREAFRLYDKEGNGYISTDVMREILAELDETLSSEDLSAMIDEIDADGSGTVDFEEFMGVMT [D39S],1.39 kcal/mol
19,ELREAFRLYDKEGNGYISTDVMREILAELDETLSSEDLPAMIDEIDADGSGTVDFEEFMGVMT [D39P],-0.067 kcal/mol
20,ELREAFRLYDKEGNGYISTDVMREILAELDETLSSEDLRAMIDEIDADGSGTVDFEEFMGVMT [D39R],1.41 kcal/mol
21,ELREAFRLYDKEGNGYISTDVMREILAELDETLSSEDLQAMIDEIDADGSGTVDFEEFMGVMT [D39Q],1.57 kcal/mol
22,ELREAFRLYDKEGNGYISTDVMREILAELDETLSSEDLVAMIDEIDADGSGTVDFEEFMGVMT [D39V],0.996 kcal/mol

row,Variant,folding stability dG
1,ELREAFRLYDKEGNGYISTDVMREILAELDETLSSEDLNAMIDEIDADGSGTVDFEEFMGVMT [D39N],1.58 kcal/mol
2,ELREAFRLYDKEGNGYISTDVMREILAELDETLSSEDLWAMIDEIDADGSGTVDFEEFMGVMT [D39W],1.22 kcal/mol
3,ELREAFRLYDKEGNGYISTDVMREILAELDETLSSEDLYAMIDEIDADGSGTVDFEEFMGVMT [D39Y],1.06 kcal/mol
4,ELREAFRLYDKEGNGYISTDVMREILAELDETLSSEDLDAMIWEIDADGSGTVDFEEFMGVMT [D43W],2.16 kcal/mol
5,ELREAFRLYDKEGNGYISTDVMREILAELDETLSSEDLDAMICEIDADGSGTVDFEEFMGVMT [D43C],2.1 kcal/mol
6,ELREAFRLYDKEGNGYISTDVMREILAELDETLSSEDLDAMIKEIDADGSGTVDFEEFMGVMT [D43K],2.26 kcal/mol
7,ELREAFRLYDKEGNGYISTDVMREILAELDETLSSEDLDAMISEIDADGSGTVDFEEFMGVMT [D43S],2.18 kcal/mol
8,ELREAFRLYDKEGNGYISTDVMREILAELDETLSSEDLDAMIAEIDADGSGTVDFEEFMGVMT [D43A],2.29 kcal/mol
9,ELREAFRLYDKEGNGYISTDVMREILAELDETLSSEDLDAMIFEIDADGSGTVDFEEFMGVMT [D43F],2.13 kcal/mol
10,ELREAFRLYDKEGNGYISTDVMREILAELDETLSSEDLDAMIREIDADGSGTVDFEEFMGVMT [D43R],2.35 kcal/mol
11,ELREAFRLYDKEGNGYISTDVMREILAELDETLSSEDLDAMITEIDADGSGTVDFEEFMGVMT [D43T],1.89 kcal/mol
12,ELREAFRLYDKEGNGYISTDVMREILAELDETLSSEDLDAMIVEIDADGSGTVDFEEFMGVMT [D43V],1.96 kcal/mol
13,ELREAFRLYDKEGNGYISTDVMREILAELDETLSSEDLDAMIGEIDADGSGTVDFEEFMGVMT [D43G],1.87 kcal/mol
14,ELREAFRLYDKEGNGYISTDVMREILAELDETLSSEDLDAMIIEIDADGSGTVDFEEFMGVMT [D43I],2.04 kcal/mol
15,ELREAFRLYDKEGNGYISTDVMREILAELDETLSSEDLDAMIQEIDADGSGTVDFEEFMGVMT [D43Q],2.17 kcal/mol
16,ELREAFRLYDKEGNGYISTDVMREILAELDETLSSEDLDAMIHEIDADGSGTVDFEEFMGVMT [D43H],2.16 kcal/mol
17,ELREAFRLYDKEGNGYISTDVMREILAELDETLSSEDLDAMILEIDADGSGTVDFEEFMGVMT [D43L],2.23 kcal/mol
18,ELREAFRLYDKEGNGYISTDVMREILAELDETLSSEDLDAMIMEIDADGSGTVDFEEFMGVMT [D43M],2.32 kcal/mol
19,ELREAFRLYDKEGNGYISTDVMREILAELDETLSSEDLDAMIYEIDADGSGTVDFEEFMGVMT [D43Y],2.16 kcal/mol
20,ELREAFRLYDKEGNGYISTDVMREILAELDETLSSEDLDAMINEIDADGSGTVDFEEFMGVMT [D43N],2.2 kcal/mol
21,ELREAFRLYDKEGNGYISTDVMREILAELDETLSSEDLDAMIEEIDADGSGTVDFEEFMGVMT [D43E],2.03 kcal/mol
22,ELREAFRLYDKEGNGYISTDVMREILAELDETLSSEDLDAMIPEIDADGSGTVDFEEFMGVMT [D43P],0.558 kcal/mol

row,Variant,folding stability dG
1,ELREAFRLYDKEGNGYISTDVMREILAELDETLSSEDLDFMIDEIDADGSGTVDFEEFMGVMT [A40F],1.77 kcal/mol
2,ELREAFRLYDKEGNGYISTDVMREILAELDETLSSEDLDMMIDEIDADGSGTVDFEEFMGVMT [A40M],1.76 kcal/mol
3,ELREAFRLYDKEGNGYISTDVMREILAELDETLSSEDLDGMIDEIDADGSGTVDFEEFMGVMT [A40G],1.34 kcal/mol
4,ELREAFRLYDKEGNGYISTDVMREILAELDETLSSEDLDVMIDEIDADGSGTVDFEEFMGVMT [A40V],1.69 kcal/mol
5,ELREAFRLYDKEGNGYISTDVMREILAELDETLSSEDLDKMIDEIDADGSGTVDFEEFMGVMT [A40K],2.11 kcal/mol
6,ELREAFRLYDKEGNGYISTDVMREILAELDETLSSEDLDSMIDEIDADGSGTVDFEEFMGVMT [A40S],1.73 kcal/mol
7,ELREAFRLYDKEGNGYISTDVMREILAELDETLSSEDLDYMIDEIDADGSGTVDFEEFMGVMT [A40Y],1.71 kcal/mol
8,ELREAFRLYDKEGNGYISTDVMREILAELDETLSSEDLDIMIDEIDADGSGTVDFEEFMGVMT [A40I],1.77 kcal/mol
9,ELREAFRLYDKEGNGYISTDVMREILAELDETLSSEDLDWMIDEIDADGSGTVDFEEFMGVMT [A40W],1.6 kcal/mol
10,ELREAFRLYDKEGNGYISTDVMREILAELDETLSSEDLDDMIDEIDADGSGTVDFEEFMGVMT [A40D],1.4 kcal/mol
11,ELREAFRLYDKEGNGYISTDVMREILAELDETLSSEDLDQMIDEIDADGSGTVDFEEFMGVMT [A40Q],1.8 kcal/mol
12,ELREAFRLYDKEGNGYISTDVMREILAELDETLSSEDLDCMIDEIDADGSGTVDFEEFMGVMT [A40C],1.93 kcal/mol
13,ELREAFRLYDKEGNGYISTDVMREILAELDETLSSEDLDRMIDEIDADGSGTVDFEEFMGVMT [A40R],2.31 kcal/mol
14,ELREAFRLYDKEGNGYISTDVMREILAELDETLSSEDLDTMIDEIDADGSGTVDFEEFMGVMT [A40T],1.57 kcal/mol
15,ELREAFRLYDKEGNGYISTDVMREILAELDETLSSEDLDLMIDEIDADGSGTVDFEEFMGVMT [A40L],1.85 kcal/mol
16,ELREAFRLYDKEGNGYISTDVMREILAELDETLSSEDLDPMIDEIDADGSGTVDFEEFMGVMT [A40P],-0.715 kcal/mol
17,ELREAFRLYDKEGNGYISTDVMREILAELDETLSSEDLDEMIDEIDADGSGTVDFEEFMGVMT [A40E],1.51 kcal/mol
18,ELREAFRLYDKEGNGYISTDVMREILAELDETLSSEDLDHMIDEIDADGSGTVDFEEFMGVMT [A40H],2.19 kcal/mol
19,ELREAFRLYDKEGNGYISTDVMREILAELDETLSSEDLDNMIDEIDADGSGTVDFEEFMGVMT [A40N],1.73 kcal/mol
